The chains are these.
B1: F1*; the commonest letter at each place (parent)
chain: GAGACCGCAACTGAAAAGTTGTTATCACTTGTCGTAAGACACTTTGGATGGGTTGAAGTTCTGCACGTAGAAGCAAAAGGC

Among the data in the supplement of paper PMC6755084 are fraction ligated values, retold here.

The series covers variants of B1. Kind of series: fraction ligated after 30 min (ligated reads / total reads); higher = more ligase activity. Conditions: with F1*sub RNA substrate (template-directed ligation), 42 °C. As to the method: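 Chip-synthesised pool of F1* ligase ribozyme variants (all single and double substitutions, single, double and triple deletions in the catalytic core and GAA bulge, plus designed variants) was transcribed with T7 and reacted as a pool with excess substrate F1*sub for 30 min at 42 C in 50 mM EPPS pH 8.5, 25 mM MgCl2. Ligated and unligated bands were separated by PAGE, barcoded by RT and deep sequenced; fraction ligated = ligated reads / total reads per variant, relative activity = FL / FL of wild type (0.826). Sequences are the DNA template of the ribozyme.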
Take GAGACCGCAACTGAAAAGTTGTTAACACTTGTCGTAAGACACTTTAGATGGGTTGAAGTTCTGCACGTAGAAGCAAAAGGC: the fraction ligated was 0.279.
For GAGACCGCAACTGAAAAGTTGTTAACACTTGTCGTAAGACACTTTTGATGGGTTGAAGTTCTGCACGTAGAAGCAAAAGGC the value was 0.0811.
For the variant GAGACCGCAACTGAAAAGTTGTTAACACTTGTCGTAAGACACTTTCGATGGGTTGAAGTTCTGCACGTAGAAGCAAAAGGC, the fraction ligated amounted to 0.137.
For GAGACCGCAACTGAAAAGTTGTTACCACTTGTCGTAAGCCACTTTGGATGGGTTGAAGTTCTGCACGTAGAAGCAAAAGGC the value was 0.741.
Regarding GAGACCGCAACTGAAAAGTTGTTACCACTTGTCGTAAGGCACTTTGGATGGGTTGAAGTTCTGCACGTAGAAGCAAAAGGC, the fraction ligated came to 0.786.
As for GAGACCGCAACTGAAAAGTTGTTACCACTTGTCGTAAGACACTTTGGATGGGTTGAAGTTCTGCACGTAGAAGCAAAAGGC, the figure is 0.759.
As to GAGACCGCAACTGAAAAGTTGTTACCACTTGTCGTATGACACTTTGGATGGGTTGAAGTTCTGCACGTAGAAGCAAAAGGC, the fraction ligated was found to be 0.784.
For GAGACCGCAACTGAAAAGTTGTTACCACTTGTCGTAGGACACTTTGGATGGGTTGAAGTTCTGCACGTAGAAGCAAAAGGC the value was 0.812; for GAGACCGCAACTGAAAAGTTGTTACCACTTGTCGTACGACACTTTGGATGGGTTGAAGTTCTGCACGTAGAAGCAAAAGGC, 0.766.
With GAGACCGCAACTGAAAAGTTGTTAACACTTGTAGTAAGACACTTTGGATGGGTTGAAGTTCTGCACGTAGAAGCAAAAGGC, the fraction ligated was 0.189.
Turning to GAGACCGCAACTGAAAAGTTGTTAACACTTGTGGTAAGACACTTTGGATGGGTTGAAGTTCTGCACGTAGAAGCAAAAGGC, the fraction ligated is 0.229.
For GAGACCGCAACTGAAAAGTTGTTAACACTTGTTGTAAGACACTTTGGATGGGTTGAAGTTCTGCACGTAGAAGCAAAAGGC, the fraction ligated turned out to be 0.472.
On to GAGACCGCAACTGAAAAGTTGTTAACAGTTGTCGTAAGACACTTTGGATGGGTTGAAGTTCTGCACGTAGAAGCAAAAGGC, for which the fraction ligated came to 0.431.
GAGACCGCAACTGAAAAGTTGTTAACATTTGTCGTAAGACACTTTGGATGGGTTGAAGTTCTGCACGTAGAAGCAAAAGGC: the fraction ligated was 0.714.
Regarding GAGACCGCAACTGAAAAGTTGTTAACACATGTCGTAAGACACTTTGGATGGGTTGAAGTTCTGCACGTAGAAGCAAAAGGC, the fraction ligated was 0.582.
With GAGACCGCAACTGAAAAGTTGTTAACACCTGTCGTAAGACACTTTGGATGGGTTGAAGTTCTGCACGTAGAAGCAAAAGGC, the fraction ligated is 0.187.
For GAGACCGCAACTGAAAAGTTGTTAACACGTGTCGTAAGACACTTTGGATGGGTTGAAGTTCTGCACGTAGAAGCAAAAGGC the value was 0.691; for GAGACCGCAACTGAAAAGTTGTTAACACTTGTCGTAAGACACTTTGGAAGGGTTGAAGTTCTGCACGTAGAAGCAAAAGGC, 0.721.
For the variant GAGACCGCAACTGAAAAGTTGTTAACACTTGTCGTAAGACACTTTGGAGGGGTTGAAGTTCTGCACGTAGAAGCAAAAGGC, the fraction ligated is 0.772.
Take GAGACCGCAACTGAAAAGTTGTTAACACTTGTCGTAAGACACTTTGGACGGGTTGAAGTTCTGCACGTAGAAGCAAAAGGC: the fraction ligated stood at 0.612.
As to GAGACCGCAACTGAAAAGTTGTTAACACTTGTCGTAAGACACTTAGGATGGGTTGAAGTTCTGCACGTAGAAGCAAAAGGC, the fraction ligated was determined as 0.0271.
As to GAGACCGCAACTGAAAAGTTGTTAACACTTGTCGTAAGACACTTCGGATGGGTTGAAGTTCTGCACGTAGAAGCAAAAGGC, the fraction ligated is 0.0183.
As for GAGACCGCAACTGAAAAGTTGTTAACACTTGTCGTAAGACACTTGGGATGGGTTGAAGTTCTGCACGTAGAAGCAAAAGGC, the fraction ligated was found to be 0.029.
For GAGACCGCAACTGAAAAGTTGTTAACACTTGGCGTAAGACACTTTGGATGGGTTGAAGTTCTGCACGTAGAAGCAAAAGGC, the fraction ligated was found to be 0.13.
Take GAGACCGCAACTGAAAAGTTGTTAACACTTGCCGTAAGACACTTTGGATGGGTTGAAGTTCTGCACGTAGAAGCAAAAGGC: the fraction ligated was found to be 0.145.
As for GAGACCGCAACTGAAAAGTTGTTAACACTTGACGTAAGACACTTTGGATGGGTTGAAGTTCTGCACGTAGAAGCAAAAGGC, the figure is 0.094; as for GAGACCGCAACTGAAAAGTTGTTAACACTTGTCGTAAGACACTTTGAATGGGTTGAAGTTCTGCACGTAGAAGCAAAAGGC, 0.462.
For GAGACCGCAACTGAAAAGTTGTTAACACTTGTCGTAAGACACTTTGTATGGGTTGAAGTTCTGCACGTAGAAGCAAAAGGC the value was 0.253; for GAGACCGCAACTGAAAAGTTGTTAACACTTGTCGTAAGACACTTTGCATGGGTTGAAGTTCTGCACGTAGAAGCAAAAGGC, 0.0196.
Regarding GAGACCGCAACTGAAAAGTTGTTAACACTTGTCGTAAGACACTCTGGATGGGTTGAAGTTCTGCACGTAGAAGCAAAAGGC, the fraction ligated stood at 0.605.
In the case of GAGACCGCAACTGAAAAGTTGTTAACACTTGTCGTAAGACACTATGGATGGGTTGAAGTTCTGCACGTAGAAGCAAAAGGC, the fraction ligated turned out to be 0.762.
Turning to GAGACCGCAACTGAAAAGTTGTTAACACTTGTCGTAAGACACTGTGGATGGGTTGAAGTTCTGCACGTAGAAGCAAAAGGC, the fraction ligated is 0.117.
As for GAGACCGCAACTGAAAAGTTGTTAACACTTGTCGTAAGACACTTTGGATAGGTTGAAGTTCTGCACGTAGAAGCAAAAGGC, the figure is 0.225; as for GAGACCGCAACTGAAAAGTTGTTAACACTTGTCGTAAGACACTTTGGATCGGTTGAAGTTCTGCACGTAGAAGCAAAAGGC, 0.267.
